Paper PMC8017925, “Structural basis for differential recognition of phosphohistidine-containing peptides by 1-pHis and 3-pHis monoclonal antibodies” (Proceedings of the National Academy of Sciences of the …, 2021)

Tests used:
[1] = target: ACLYana-3-pTza peptide (AGAG-3-pTza-AGAG); assay: BLI binding kinetics of 3-pHis Fabs with cognate pTza peptide
Procedure: (§1) Biolayer interferometry (BLI) studies were performed to determine the relative affinity of pHis Fabs to in situ phosphorylated His peptides versus the phosphomimetic substrates. The N-terminally biotinylated peptides were immobilized on streptavidin biosensors and the rate of association (ka) and dissociation (kd) were determined by varying the pHis Fab concentration. Equilibrium dissociation constants (KD) were determined by fitting the experimental data to a 1:1 Langmuir binding model. ACLYana-1-pTza and ACLYana-3-pTza peptides were used to determine affinity to 1-pHis and 3-pHis Fabs, respectively (Fig. 3 A–E and Table 1). […] The two isomers were separated from each other by passing the reaction through affinity columns containing 1-pHis mAbs using SC1-1 or SC50-3 IgGs or 3-pHis mAbs using SC39-4, SC44-8, and SC56-2 IgGs. The eluates thus contained either predominantly 1-pHis or 3-pHis peptides. These peptides were used to determine the affinity to their respective isomer class of pHis Fabs (Fig. 3 F–J, Table 1, and SI Appendix, Fig. S5). […] This experimental observation is well supported by the higher number of hydrogen bonds that support the SC44-8:3-pTza interaction compared to other pHis Fabs (SI Appendix, Table S5). […] There are at least three reasons for the lower affinity of the mAbs for pHis peptides compared to pTza peptides: The continuous hydrolysis of phosphate from the pHis peptides during the course of the experiment (SI Appendix, Fig. S6), a reduction in the number of hydrogen bond interactions due to one less nitrogen in the imidazole ring compared to triazolyl ring (Fig. 4 and SI Appendix, Fig. S8), and inherently different electronic properties of the imidazole and triazolyl rings in His and Tza, respectively ([20]).
(§2) Fig. 3. Binding kinetics of pHis Fabs with cognate pTza and pHis peptides. BLI studies of immobilized peptides (ACLYana-1/3-pTza and phosphorylated ACLYana) with varying concentrations of the pHis Fabs were carried out in triplicate on an Octet Red96e instrument (FortéBio). SC1-1 (A) and SC50-3 (B) pHis Fab interaction with their ACLYana-1-pTza peptides. SC39-4 (C), SC44-8 (D), and SC56-2 (E) pHis Fabs interactions with ACLYana-3-pTza peptides. SC1-1 (F), SC50-3 (G), SC39-4 (H), SC44-8 (I), and SC56-2 (J) pHis Fabs interactions with their affinity-purified ACLYana-pHis peptides are represented, Right. The experimental data are represented in the black dashed lines and the nonlinear least-squares fitting was represented in the red continuous lines. The χ^2 for the goodness of fit is under 1.0 for the all the plots.
(§3) The binding kinetics of pHis Fabs with the peptides (pTza and pHis) were evaluated with an Octet RED96e (FortéBio). Streptavidin-coated biosensors (FortéBio) were presoaked in buffer containing 50 mM Hepes pH 8.0, 150 mM NaCl, 0.05% Tween-20, and 0.2% BSA for 15 min. The biotinylated pTza peptides or pHis peptides (20 nM) with and without phosphoramidate treatment were coated onto these streptavidin biosensors and analyzed for their binding to varying concentrations of the pHis Fabs with an association time of 120 s and dissociation time of 200 s. The entire set of experiments was repeated three times. The data were analyzed using the Octet software (FortéBio) and the rates of association and dissociation were obtained by global fitting data to the 1:1 Langmuir interaction model.

[2] = tested on: ACLYana-3-pHis peptide (AGAG-3-pHis-AGAG); assay: BLI binding kinetics of 3-pHis Fabs with affinity-purified pHis peptide
Procedure: as §1, §2
as §3, with “model. […]” for “model.”
Peptides used in the DSF and BLI experiments were synthesized by the Salk Peptide Synthesis Core. These peptides were N-terminally biotinylated and C-terminally amidated. They were synthesized using standard Fmoc chemistry on a Gyros Protein Technologies Tribute peptide synthesizer with UV monitoring. Following the deprotection, peptides were analyzed by mass spectrometry and analytical HPLC by the Proteomics Core at Salk. The peptides were HPLC purified to 99% purity by 21st Century Biochemicals, Inc. The Fmoc-pTza’s were synthesized at 10 g scale for incorporation into the peptides. […]

[3] = BLI, immobilized biotinylated ACLYana-3-pTza, 1:1 Langmuir global fit, triplicate
[4] = BLI, affinity-purified ACLYana-3-pHis peptide, 1:1 Langmuir global fit, triplicate

B1: SC44-8: Fab of rabbit 3-pHis-specific monoclonal antibody with proclivity for GpHAGA motif (antibody, V domains shown)
VH: QSVKESGRGLVQPGGSLTLTCTASGFSIDSYGFSWVRQAPGKGLEHIGYLTAGGRAFYASWAKSRSTITRNTNENTVTLKMTSLTAADTATYFCAKLGSGNPVAIWGPGTLVTVSS
VL: QVLTQTPSFTSAAVGGTVTINCQSSQSVWRNKNLAWYQQKPGQPPKRLIYAIATLDSGVPSRFSGSGSGTQFTLTISDVQCDDAATYYCVGHYGSENDAYYAFGGGTEVVVK
In the case of B1, the Kd ([1]; BLI Octet RED96e, N-terminally biotinylated peptide (20 nM) on streptavidin biosensors, varying Fab concentration, 50 mM Hepes pH 8.0, 150 mM NaCl, 0.05% Tween-20, 0.2% BSA, association 120 s, dissociation 200 s, global fit 1:1 Langmuir, triplicate) is reported as 0.235 nM, the “dissociation rate, times slower than the other pHis Fabs” value ([1]; BLI, 3-pTza peptide) is reported as 70 times and the ka [1, 3] is reported as 156000 ± 457 M⁻¹ s⁻¹. It also gave a kd [1, 3] of 3.66e-05 ± 7.5e-07 s⁻¹, a ka [2, 4] of 93600 ± 319 M⁻¹ s⁻¹ and a kd [2, 4] of 0.0017 ± 3.32e-06 s⁻¹. For the same molecule, the Kd ([2]; BLI, ACLYana phosphorylated with phosphoramidate (8 h, 23 °C), 3-pHis isomer affinity-purified on 3-pHis IgG column, immobilized on streptavidin biosensors, Hepes pH 8.0, 1:1 Langmuir global fit, triplicate) was 18.2 nM, the “BLI signal (maximum) with ACLYana” value ([2]; phosphorylated ACLYana, GpHAGAG motif) was 2.0 nm and the “affinity for 3-pHis peptides, times (fold) weaker than for the 3-pTza peptide” value ([2]; ratio of BLI KD, 3-pHis versus 3-pTza peptide) was 75 times.
